Laboratory results published in patent publication US8329178B2, “Antibodies against CXCR4 and methods of use thereof” (Dana-Farber Cancer Institute, Inc., dated 2012).

B1: 33-IgG1 (antibody, V domains shown)
VH: QVTLKESGGGVVQPGRSLRLSCAASGFTFTNYGLHWVRQAPGKGLEWVAVISHDGTKKYYADSVKGRFTISRDSSENTLYLQMNSLRPEDSALYYCARDGGYCSGGRCYSYGMDVWGQGTTVTVSS
VL: QSVLTQPPSASGTPGQRVTISCSGSRSNIGSNTVNWYQQLPGTAPKLLIYTNNQRPSGVPDRFSGSKSGTSASLAITGLQAEDEADYYCLSFDSSLTSYVFGTGTKVTVLG
B2: 48-IgG1 (antibody, V domains shown)
VH: QVQLVQSGGGVVLPGRSLRLSCVASGFTFRRYGMHWVRQAPGKGLEWVSLISYDGSKTFYGESVKGRFTISRDNSKNTLYLQMNSLRAEDTAVYYCARATVTTDGYYYMDVWGKGTTVTVSS
VL: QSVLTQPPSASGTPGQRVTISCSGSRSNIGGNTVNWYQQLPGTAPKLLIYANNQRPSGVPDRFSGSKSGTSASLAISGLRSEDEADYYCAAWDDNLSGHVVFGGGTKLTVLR

Biological target: CXCR2/CXCR4 chimera 4442 (human, UniProt P61073)
Experiment: FACS, 293T cells expressing CXCR4 variants

Binder	binding to cells expressing the variant (+%)
B1	99.5%
B2	91.9%
